Publication PMC9974095, “TP63 gain-of-function mutations cause premature ovarian insufficiency by inducing oocyte apoptosis” (The Journal of Clinical Investigation, 2023)
Values joined by “and” are separate entries in the source; they are usually repeats but may differ in a detail not shown here. Identical values can stand only once.

Biological target: the molecule itself
Assay: native gel or EMSA; BN-PAGE (NativePAGE 3%-12% Bis-Tris) of lysates of transfected SAOS-2 cells treated with 10 uM MG132 for 12 h; blot with anti-p63

Protein	stoichiometry N
mouse p63ΔTID (domain or fragment, UniProt O88898-1 1-609, looked up, mouse p63 (TAp63α) without the TID; the mouse allele of the same name carries c.1828_1829insGA (p.F610*, NM_001127259.1), a stop codon prior to the TID; also called mutant p63ΔTID) MNFETSRCATLQYCPDPYIQRFIETPAHFSWKESYYRSAMSQSTQTSEFLSPEVFQHIWDFLEQPICSVQPIELNFVDEPSENGATNKIEISMDCIRMQDSDLSDPMWPQYTNLGLLNSMDQQIQNGSSSTSPYNTDHAQNSVTAPSPYAQPSSTFDALSPSPAIPSNTDYPGPHSFDVSFQQSSTAKSATWTYSTELKKLYCQIAKTCPIQIKVMTPPPQGAVIRAMPVYKKAEHVTEVVKRCPNHELSREFNEGQIAPPSHLIRVEGNSHAQYVEDPITGRQSVLVPYEPPQVGTEFTTVLYNFMCNSSCVGGMNRRPILIIVTLETRDGQVLGRRCFEARICACPGRDRKADEDSIRKQQVSDSAKNGDGTKRPFRQNTHGIQMTSIKKRRSPDDELLYLPVRGRETYEMLLKIKESLELMQYLPQHTIETYRQQQQQQHQHLLQKQTSMQSQSSYGNSSPPLNKMNSMNKLPSVSQLINPQQRNALTPTTMPEGMGANIPMMGTHMPMAGDMNGLSPTQALPPPLSMPSTSHCTPPPPYPTDCSIVSFLARLGCSSCLDYFTTQGLTTIYQIEHYSMDDLASLKIPEQFRHAIWKGILDHRQLHD	4
TAp63α p.R594* (domain or fragment, human, UniProt Q9H3D4-1 1-593, looked up, human TAp63α with the nonsense variant p.R594* (stop at codon 594, in the SAM domain; truncates the protein prior to the TID), numbered on NM_003722.5; Nonsense variant found in a patient with POI; lacks the TID; source: SAOS-2, transfected, MG132-treated, in lysate) MNFETSRCATLQYCPDPYIQRFVETPAHFSWKESYYRSTMSQSTQTNEFLSPEVFQHIWDFLEQPICSVQPIDLNFVDEPSEDGATNKIEISMDCIRMQDSDLSDPMWPQYTNLGLLNSMDQQIQNGSSSTSPYNTDHAQNSVTAPSPYAQPSSTFDALSPSPAIPSNTDYPGPHSFDVSFQQSSTAKSATWTYSTELKKLYCQIAKTCPIQIKVMTPPPQGAVIRAMPVYKKAEHVTEVVKRCPNHELSREFNEGQIAPPSHLIRVEGNSHAQYVEDPITGRQSVLVPYEPPQVGTEFTTVLYNFMCNSSCVGGMNRRPILIIVTLETRDGQVLGRRCFEARICACPGRDRKADEDSIRKQQVSDSTKNGDGTKRPFRQNTHGIQMTSIKKRRSPDDELLYLPVRGRETYEMLLKIKESLELMQYLPQHTIETYRQQQQQQHQHLLQKQTSIQSPSSYGNSSPPLNKMNSMNKLPSVSQLINPQQRNALTPTTIPDGMGANIPMMGTHMPMAGDMNGLSPTQALPPPLSMPSTSHCTPPPPYPTDCSIVSFLARLGCSSCLDYFTTQGLTTIYQIEHYSMDDLASLKIPEQF	4
TAp63α (human TP63), wild type (natural protein, UniProt Q9H3D4-1 1-680, looked up, human p63, isoform TAp63α; variants are numbered on NM_003722.5; also called WT TAp63α; source: SAOS-2, transfected (pcDNA3.1-TP63), MG132-treated, in lysate) MNFETSRCATLQYCPDPYIQRFVETPAHFSWKESYYRSTMSQSTQTNEFLSPEVFQHIWDFLEQPICSVQPIDLNFVDEPSEDGATNKIEISMDCIRMQDSDLSDPMWPQYTNLGLLNSMDQQIQNGSSSTSPYNTDHAQNSVTAPSPYAQPSSTFDALSPSPAIPSNTDYPGPHSFDVSFQQSSTAKSATWTYSTELKKLYCQIAKTCPIQIKVMTPPPQGAVIRAMPVYKKAEHVTEVVKRCPNHELSREFNEGQIAPPSHLIRVEGNSHAQYVEDPITGRQSVLVPYEPPQVGTEFTTVLYNFMCNSSCVGGMNRRPILIIVTLETRDGQVLGRRCFEARICACPGRDRKADEDSIRKQQVSDSTKNGDGTKRPFRQNTHGIQMTSIKKRRSPDDELLYLPVRGRETYEMLLKIKESLELMQYLPQHTIETYRQQQQQQHQHLLQKQTSIQSPSSYGNSSPPLNKMNSMNKLPSVSQLINPQQRNALTPTTIPDGMGANIPMMGTHMPMAGDMNGLSPTQALPPPLSMPSTSHCTPPPPYPTDCSIVSFLARLGCSSCLDYFTTQGLTTIYQIEHYSMDDLASLKIPEQFRHAIWKGILDHRQLHEFSSPSHLLRTPSSASTVSVGSSETRGERVIDAVRFTLRQTISFPPRDEWNDFNFDMDARRNKQQRIKEEGE	2
TAp63α p.R643Q (natural protein, human, UniProt Q9H3D4-1 1-680, looked up, Variant found in a patient with POI; source: SAOS-2, transfected, MG132-treated, in lysate) MNFETSRCATLQYCPDPYIQRFVETPAHFSWKESYYRSTMSQSTQTNEFLSPEVFQHIWDFLEQPICSVQPIDLNFVDEPSEDGATNKIEISMDCIRMQDSDLSDPMWPQYTNLGLLNSMDQQIQNGSSSTSPYNTDHAQNSVTAPSPYAQPSSTFDALSPSPAIPSNTDYPGPHSFDVSFQQSSTAKSATWTYSTELKKLYCQIAKTCPIQIKVMTPPPQGAVIRAMPVYKKAEHVTEVVKRCPNHELSREFNEGQIAPPSHLIRVEGNSHAQYVEDPITGRQSVLVPYEPPQVGTEFTTVLYNFMCNSSCVGGMNRRPILIIVTLETRDGQVLGRRCFEARICACPGRDRKADEDSIRKQQVSDSTKNGDGTKRPFRQNTHGIQMTSIKKRRSPDDELLYLPVRGRETYEMLLKIKESLELMQYLPQHTIETYRQQQQQQHQHLLQKQTSIQSPSSYGNSSPPLNKMNSMNKLPSVSQLINPQQRNALTPTTIPDGMGANIPMMGTHMPMAGDMNGLSPTQALPPPLSMPSTSHCTPPPPYPTDCSIVSFLARLGCSSCLDYFTTQGLTTIYQIEHYSMDDLASLKIPEQFRHAIWKGILDHRQLHEFSSPSHLLRTPSSASTVSVGSSETRGERVIDAVQFTLRQTISFPPRDEWNDFNFDMDARRNKQQRIKEEGE	4
TAp63α p.T567I (natural protein, human, UniProt Q9H3D4-1 1-680, looked up, human TAp63α with the patient variant p.T567I (SAM domain), numbered on NM_003722.5; made from pcDNA3.1-TP63 by site-directed mutagenesis; Variant found in a patient with POI; source: SAOS-2, transfected, MG132-treated, in lysate) MNFETSRCATLQYCPDPYIQRFVETPAHFSWKESYYRSTMSQSTQTNEFLSPEVFQHIWDFLEQPICSVQPIDLNFVDEPSEDGATNKIEISMDCIRMQDSDLSDPMWPQYTNLGLLNSMDQQIQNGSSSTSPYNTDHAQNSVTAPSPYAQPSSTFDALSPSPAIPSNTDYPGPHSFDVSFQQSSTAKSATWTYSTELKKLYCQIAKTCPIQIKVMTPPPQGAVIRAMPVYKKAEHVTEVVKRCPNHELSREFNEGQIAPPSHLIRVEGNSHAQYVEDPITGRQSVLVPYEPPQVGTEFTTVLYNFMCNSSCVGGMNRRPILIIVTLETRDGQVLGRRCFEARICACPGRDRKADEDSIRKQQVSDSTKNGDGTKRPFRQNTHGIQMTSIKKRRSPDDELLYLPVRGRETYEMLLKIKESLELMQYLPQHTIETYRQQQQQQHQHLLQKQTSIQSPSSYGNSSPPLNKMNSMNKLPSVSQLINPQQRNALTPTTIPDGMGANIPMMGTHMPMAGDMNGLSPTQALPPPLSMPSTSHCTPPPPYPTDCSIVSFLARLGCSSCLDYFTIQGLTTIYQIEHYSMDDLASLKIPEQFRHAIWKGILDHRQLHEFSSPSHLLRTPSSASTVSVGSSETRGERVIDAVRFTLRQTISFPPRDEWNDFNFDMDARRNKQQRIKEEGE	2
TAp63α p.T538A (natural protein, human, UniProt Q9H3D4-1 1-680, looked up, human TAp63α with the patient variant p.T538A, numbered on NM_003722.5; made from pcDNA3.1-TP63 by site-directed mutagenesis; Variant found in a patient with POI; source: SAOS-2, transfected, MG132-treated, in lysate) MNFETSRCATLQYCPDPYIQRFVETPAHFSWKESYYRSTMSQSTQTNEFLSPEVFQHIWDFLEQPICSVQPIDLNFVDEPSEDGATNKIEISMDCIRMQDSDLSDPMWPQYTNLGLLNSMDQQIQNGSSSTSPYNTDHAQNSVTAPSPYAQPSSTFDALSPSPAIPSNTDYPGPHSFDVSFQQSSTAKSATWTYSTELKKLYCQIAKTCPIQIKVMTPPPQGAVIRAMPVYKKAEHVTEVVKRCPNHELSREFNEGQIAPPSHLIRVEGNSHAQYVEDPITGRQSVLVPYEPPQVGTEFTTVLYNFMCNSSCVGGMNRRPILIIVTLETRDGQVLGRRCFEARICACPGRDRKADEDSIRKQQVSDSTKNGDGTKRPFRQNTHGIQMTSIKKRRSPDDELLYLPVRGRETYEMLLKIKESLELMQYLPQHTIETYRQQQQQQHQHLLQKQTSIQSPSSYGNSSPPLNKMNSMNKLPSVSQLINPQQRNALTPTTIPDGMGANIPMMGTHMPMAGDMNGLSPTQALPPPLSMPSTSHCAPPPPYPTDCSIVSFLARLGCSSCLDYFTTQGLTTIYQIEHYSMDDLASLKIPEQFRHAIWKGILDHRQLHEFSSPSHLLRTPSSASTVSVGSSETRGERVIDAVRFTLRQTISFPPRDEWNDFNFDMDARRNKQQRIKEEGE	2
TAp63α p.R655Q (natural protein, human, UniProt Q9H3D4-1 1-680, looked up, Variant found in a patient with POI; source: SAOS-2, transfected, MG132-treated, in lysate) MNFETSRCATLQYCPDPYIQRFVETPAHFSWKESYYRSTMSQSTQTNEFLSPEVFQHIWDFLEQPICSVQPIDLNFVDEPSEDGATNKIEISMDCIRMQDSDLSDPMWPQYTNLGLLNSMDQQIQNGSSSTSPYNTDHAQNSVTAPSPYAQPSSTFDALSPSPAIPSNTDYPGPHSFDVSFQQSSTAKSATWTYSTELKKLYCQIAKTCPIQIKVMTPPPQGAVIRAMPVYKKAEHVTEVVKRCPNHELSREFNEGQIAPPSHLIRVEGNSHAQYVEDPITGRQSVLVPYEPPQVGTEFTTVLYNFMCNSSCVGGMNRRPILIIVTLETRDGQVLGRRCFEARICACPGRDRKADEDSIRKQQVSDSTKNGDGTKRPFRQNTHGIQMTSIKKRRSPDDELLYLPVRGRETYEMLLKIKESLELMQYLPQHTIETYRQQQQQQHQHLLQKQTSIQSPSSYGNSSPPLNKMNSMNKLPSVSQLINPQQRNALTPTTIPDGMGANIPMMGTHMPMAGDMNGLSPTQALPPPLSMPSTSHCTPPPPYPTDCSIVSFLARLGCSSCLDYFTTQGLTTIYQIEHYSMDDLASLKIPEQFRHAIWKGILDHRQLHEFSSPSHLLRTPSSASTVSVGSSETRGERVIDAVRFTLRQTISFPPQDEWNDFNFDMDARRNKQQRIKEEGE	4 and 2
TAp63α p.L646P (natural protein, human, UniProt Q9H3D4-1 1-680, looked up, Variant found in a patient with POI; source: SAOS-2, transfected, MG132-treated, in lysate) MNFETSRCATLQYCPDPYIQRFVETPAHFSWKESYYRSTMSQSTQTNEFLSPEVFQHIWDFLEQPICSVQPIDLNFVDEPSEDGATNKIEISMDCIRMQDSDLSDPMWPQYTNLGLLNSMDQQIQNGSSSTSPYNTDHAQNSVTAPSPYAQPSSTFDALSPSPAIPSNTDYPGPHSFDVSFQQSSTAKSATWTYSTELKKLYCQIAKTCPIQIKVMTPPPQGAVIRAMPVYKKAEHVTEVVKRCPNHELSREFNEGQIAPPSHLIRVEGNSHAQYVEDPITGRQSVLVPYEPPQVGTEFTTVLYNFMCNSSCVGGMNRRPILIIVTLETRDGQVLGRRCFEARICACPGRDRKADEDSIRKQQVSDSTKNGDGTKRPFRQNTHGIQMTSIKKRRSPDDELLYLPVRGRETYEMLLKIKESLELMQYLPQHTIETYRQQQQQQHQHLLQKQTSIQSPSSYGNSSPPLNKMNSMNKLPSVSQLINPQQRNALTPTTIPDGMGANIPMMGTHMPMAGDMNGLSPTQALPPPLSMPSTSHCTPPPPYPTDCSIVSFLARLGCSSCLDYFTTQGLTTIYQIEHYSMDDLASLKIPEQFRHAIWKGILDHRQLHEFSSPSHLLRTPSSASTVSVGSSETRGERVIDAVRFTPRQTISFPPRDEWNDFNFDMDARRNKQQRIKEEGE	4
TAp63α p.S285N (natural protein, human, UniProt Q9H3D4-1 1-680, looked up, made from pcDNA3.1-TP63 by site-directed mutagenesis; Variant found in a patient with POI; source: SAOS-2, transfected, MG132-treated, in lysate) MNFETSRCATLQYCPDPYIQRFVETPAHFSWKESYYRSTMSQSTQTNEFLSPEVFQHIWDFLEQPICSVQPIDLNFVDEPSEDGATNKIEISMDCIRMQDSDLSDPMWPQYTNLGLLNSMDQQIQNGSSSTSPYNTDHAQNSVTAPSPYAQPSSTFDALSPSPAIPSNTDYPGPHSFDVSFQQSSTAKSATWTYSTELKKLYCQIAKTCPIQIKVMTPPPQGAVIRAMPVYKKAEHVTEVVKRCPNHELSREFNEGQIAPPSHLIRVEGNSHAQYVEDPITGRQNVLVPYEPPQVGTEFTTVLYNFMCNSSCVGGMNRRPILIIVTLETRDGQVLGRRCFEARICACPGRDRKADEDSIRKQQVSDSTKNGDGTKRPFRQNTHGIQMTSIKKRRSPDDELLYLPVRGRETYEMLLKIKESLELMQYLPQHTIETYRQQQQQQHQHLLQKQTSIQSPSSYGNSSPPLNKMNSMNKLPSVSQLINPQQRNALTPTTIPDGMGANIPMMGTHMPMAGDMNGLSPTQALPPPLSMPSTSHCTPPPPYPTDCSIVSFLARLGCSSCLDYFTTQGLTTIYQIEHYSMDDLASLKIPEQFRHAIWKGILDHRQLHEFSSPSHLLRTPSSASTVSVGSSETRGERVIDAVRFTLRQTISFPPRDEWNDFNFDMDARRNKQQRIKEEGE	2
